Measured values published in patent publication US20160091498A1 (H LEE MOFFITT CANCER CENTER AND RESEARCH INSTITUTE, published 2016).
Primed or numbered codes have the meaning given here. No end group written: not given here. Biotin′ = not defined here

Biological target: T1, NPAT (UniProt Q14207 1-1427)
T1 construct: other lysate proteins were present
T1 sequence (looked up): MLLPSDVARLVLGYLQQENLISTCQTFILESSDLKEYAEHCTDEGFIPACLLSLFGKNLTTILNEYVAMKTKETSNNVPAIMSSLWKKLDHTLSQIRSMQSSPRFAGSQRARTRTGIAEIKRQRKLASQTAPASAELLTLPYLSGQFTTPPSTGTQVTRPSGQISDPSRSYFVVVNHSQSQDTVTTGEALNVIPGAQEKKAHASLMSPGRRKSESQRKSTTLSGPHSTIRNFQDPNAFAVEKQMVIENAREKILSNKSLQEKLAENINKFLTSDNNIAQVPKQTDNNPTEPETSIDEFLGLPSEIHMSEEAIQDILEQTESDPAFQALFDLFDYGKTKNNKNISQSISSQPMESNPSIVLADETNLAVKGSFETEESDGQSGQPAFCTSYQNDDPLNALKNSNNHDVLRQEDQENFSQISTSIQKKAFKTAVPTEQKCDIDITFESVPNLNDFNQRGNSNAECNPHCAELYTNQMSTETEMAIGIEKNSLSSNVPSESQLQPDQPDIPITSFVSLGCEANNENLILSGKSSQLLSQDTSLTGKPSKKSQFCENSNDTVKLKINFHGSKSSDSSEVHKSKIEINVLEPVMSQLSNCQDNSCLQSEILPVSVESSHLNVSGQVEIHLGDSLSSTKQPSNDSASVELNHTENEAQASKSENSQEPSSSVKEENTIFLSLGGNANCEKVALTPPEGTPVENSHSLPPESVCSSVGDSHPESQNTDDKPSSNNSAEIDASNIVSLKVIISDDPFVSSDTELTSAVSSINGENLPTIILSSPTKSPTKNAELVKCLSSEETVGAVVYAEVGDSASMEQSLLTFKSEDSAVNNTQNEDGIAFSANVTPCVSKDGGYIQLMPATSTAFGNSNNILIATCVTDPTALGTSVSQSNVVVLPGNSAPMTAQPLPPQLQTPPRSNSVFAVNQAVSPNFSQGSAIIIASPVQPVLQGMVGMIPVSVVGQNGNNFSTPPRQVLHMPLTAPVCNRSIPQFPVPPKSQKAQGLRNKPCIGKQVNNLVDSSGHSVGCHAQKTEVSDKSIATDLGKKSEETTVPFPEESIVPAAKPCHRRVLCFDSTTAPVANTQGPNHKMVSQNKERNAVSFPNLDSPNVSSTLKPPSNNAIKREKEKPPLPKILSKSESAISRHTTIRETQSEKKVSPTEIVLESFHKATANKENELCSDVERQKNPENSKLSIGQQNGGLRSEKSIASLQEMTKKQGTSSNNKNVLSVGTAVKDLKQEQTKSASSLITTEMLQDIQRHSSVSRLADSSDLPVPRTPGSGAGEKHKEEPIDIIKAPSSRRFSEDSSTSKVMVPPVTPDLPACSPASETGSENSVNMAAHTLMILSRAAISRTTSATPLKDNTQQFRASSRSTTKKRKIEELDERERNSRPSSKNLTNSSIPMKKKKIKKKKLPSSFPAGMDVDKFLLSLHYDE
Assay: filter binding: peptide on nitrocellulose, HEK293 lysate, NPAT immunoblot

binding result: binds
B1: H2B(25-49) (peptide)
peptide: DGKKRKRSRKESYSVYVYKVLKQVH-{Biotin′}
notes: also called unphosphorylated H2B; human histone H2B peptide spanning amino acids 25-49
